Measured values as given in FireProtDB (doi:10.1002/prot.1088).

B1: Lysozyme C, P61626 (parent)
chain: MKALIVLGLVLLSVTVQGKVFERCELARTLKRLGMDGYRGISLANWMCLAKWESGYNTRATNYNAGDRSTDYGIFQINSRYWCNDGKTPGAVNACHLSCSALLQDNIADAVACAKRVVRDPQGIRAWVAWRNRCQNRDVRQYVQGCGV

Variants of: B1
Conditions: Homo sapiens; pH 2.51; Thermal; DSC; Gly-HCl 0.05 M; reversible: yes; structure 1LZ1; whole UniProt chain shown

**Q.** For MKALIVLGLVLLSVTVQGKVFERCELARTLKRLGMDGYAGISLANWMCLAKWESGYNTRATNYNAGDRSTDYGIFQINSRYWCNDGKTPGAVNACHLSCSALLQDNIADAVACAKRVVRDPQGIRAWVAWRNRCQNRDVRQYVQGCGV [R39A], which Tm is on record?
**A.** 66.1 °C

**Q.** And the “unfolding enthalpy (calorimetric)” value?
**A.** 98.7 kcal/mol

**Q.** And the “unfolding enthalpy (van 't Hoff)” value?
**A.** 107 kcal/mol

**Q.** With MKALIVLGLVLLSVTVQGKVFERCELARTLKRLGMDGYRGISLANWMCLAKWESGYNTRATNYNAGDRSTDYGIFQINSRYWCNDGKTPGAVNACHLSCSALLQDNIADAVACAKRVVRDPQGIRAWVAWRNRCQARDVRQYVQGCGV [N136A] as the variant, how does the Tm read?
**A.** 62.1 °C

**Q.** What about the “unfolding enthalpy (calorimetric)” value of the same variant?
**A.** 99.9 kcal/mol

**Q.** And the “unfolding enthalpy (van 't Hoff)” value?
**A.** 106 kcal/mol

Same assay, conditions: Homo sapiens; pH 2.7; Thermal; DSC; Gly-HCl 0.05 M; reversible: yes; structure 1LZ1; whole UniProt chain shown

**Q.** Which Tm does the source give for MKALIVLGLVLLSVTVQGKVFERCELARTLKRLGMDGYAGISLANWMCLAKWESGYNTRATNYNAGDRSTDYGIFQINSRYWCNDGKTPGAVNACHLSCSALLQDNIADAVACAKRVVRDPQGIRAWVAWRNRCQNRDVRQYVQGCGV [R39A] here?
**A.** 69.4 °C

**Q.** What about the “change of melting temperature, mutant - wild type (higher = more stable)” value of the same variant?
**A.** 4.5 °C

**Q.** What about the “heat capacity change of unfolding” value of the same variant?
**A.** 1.82 kcal/mol/K

**Q.** What about the “unfolding enthalpy (calorimetric)” value of the same variant?
**A.** 96.6 kcal/mol

**Q.** For MKALIVLGLVLLSVTVQGKVFERCELARTLKRLGMDGYRGISLANWMCLAKWESGYNTRATNYNAGDRSTDYGIFQINSRYWCNDGKTPGAVNACHLSCSALLQDNIADAVACAKRVVRDPQGIRAWVAWRNRCQARDVRQYVQGCGV [N136A], which Tm is on record?
**A.** 65.5 °C

**Q.** What about the “change of melting temperature, mutant - wild type (higher = more stable)” value of the same variant?
**A.** 0.6 °C

**Q.** And the “heat capacity change of unfolding” value?
**A.** 1.24 kcal/mol/K

**Q.** And the “unfolding enthalpy (calorimetric)” value?
**A.** 104 kcal/mol

**Q.** Which results are given for MKALIVLGLVLLSVTVQGKVFERCELARTLKRLGMDGYRGISLANWMCLAKWESGANTRATNYNAGDRSTDYGIFQINSRYWCNDGKTPGAVNACHLSCSALLQDNIADAVACAKRVVRDPQGIRAWVAWRNRCQNRDVRQYVQGCGV [Y56A]?
**A.** Tm: 56 °C; change of melting temperature, mutant - wild type (higher = more stable): -8.9 °C; heat capacity change of unfolding: 0.98 kcal/mol/K; unfolding enthalpy (calorimetric): 96.8 kcal/mol

**Q.** What does the source list for MKALIVLGLVLLSVTVQGKVFERCELARTLKRLGMDGYRGISLANWMCLAKWESGYNTRATNYNAGDRSTDYGIFQINSRYWCNDGKTPGAVNACHLSCSALLQDNIADAVACAKRVVRDPQGIRAWVAWRNRCQGRDVRQYVQGCGV [N136G]?
**A.** Tm: 65.1 °C; change of melting temperature, mutant - wild type (higher = more stable): 0.2 °C; heat capacity change of unfolding: 1.65 kcal/mol/K; unfolding enthalpy (calorimetric): 101 kcal/mol

Same assay, conditions: Homo sapiens; pH 2.71; Thermal; DSC; Gly-HCl 0.05 M; reversible: yes; structure 1LZ1; whole UniProt chain shown

**Q.** With MKALIVLGLVLLSVTVQGKVFERCELARTLKRLGMDGYAGISLANWMCLAKWESGYNTRATNYNAGDRSTDYGIFQINSRYWCNDGKTPGAVNACHLSCSALLQDNIADAVACAKRVVRDPQGIRAWVAWRNRCQNRDVRQYVQGCGV [R39A] as the variant, how does the Tm read?
**A.** 69.8 °C

**Q.** What about the “unfolding enthalpy (calorimetric)” value of the same variant?
**A.** 106 kcal/mol

**Q.** What about the “unfolding enthalpy (van 't Hoff)” value of the same variant?
**A.** 113 kcal/mol

Same assay, conditions: Homo sapiens; pH 3.23; Thermal; DSC; Gly-HCl 0.05 M; reversible: yes; structure 1LZ1; whole UniProt chain shown

**Q.** Which Tm does the source give for MKALIVLGLVLLSVTVQGKVFERCELARTLKRLGMDGYAGISLANWMCLAKWESGYNTRATNYNAGDRSTDYGIFQINSRYWCNDGKTPGAVNACHLSCSALLQDNIADAVACAKRVVRDPQGIRAWVAWRNRCQNRDVRQYVQGCGV [R39A] here?
**A.** 77.6 °C

**Q.** What about the “unfolding enthalpy (calorimetric)” value of the same variant?
**A.** 120 kcal/mol

**Q.** And the “unfolding enthalpy (van 't Hoff)” value?
**A.** 129 kcal/mol

Same assay, conditions: Homo sapiens; pH 2.7; 64.9 °C; Thermal; DSC; Gly-HCl 0.05 M; reversible: yes; structure 1LZ1; whole UniProt chain shown

**Q.** Which “ddG of mutation (higher = less stable)” value does the source give for MKALIVLGLVLLSVTVQGKVFERCELARTLKRLGMDGYRGISLANWMCLAKWESGYNTRATNYNAGDRSTDYGIFQINSRYWCNDGKTPGAVNACHLSCSALLQDNIADAVACAKRVVRDPQGIRAWVAWRNRCQARDVRQYVQGCGV [N136A] here?
**A.** -0.19 kcal/mol

**Q.** For MKALIVLGLVLLSVTVQGKVFERCELARTLKRLGMDGYRGISLANWMCLAKWESGANTRATNYNAGDRSTDYGIFQINSRYWCNDGKTPGAVNACHLSCSALLQDNIADAVACAKRVVRDPQGIRAWVAWRNRCQNRDVRQYVQGCGV [Y56A], which “ddG of mutation (higher = less stable)” value is on record?
**A.** 2.49 kcal/mol

**Q.** With MKALIVLGLVLLSVTVQGKVFERCELARTLKRLGMDGYRGISLANWMCLAKWESGYNTRATNYNAGDRSTDYGIFQINSRYWCNDGKTPGAVNACHLSCSALLQDNIADAVACAKRVVRDPQGIRAWVAWRNRCQGRDVRQYVQGCGV [N136G] as the variant, how does the “ddG of mutation (higher = less stable)” value read?
**A.** -0.05 kcal/mol

Same assay, conditions: Homo sapiens; pH 2.74; Thermal; DSC; Gly-HCl 0.05 M; reversible: yes; structure 1LZ1; whole UniProt chain shown

**Q.** With MKALIVLGLVLLSVTVQGKVFERCELARTLKRLGMDGYRGISLANWMCLAKWESGYNTRATNYNAGDRSTDYGIFQINSRYWCNDGKTPGAVNACHLSCSALLQDNIADAVACAKRVVRDPQGIRAWVAWRNRCQARDVRQYVQGCGV [N136A] as the variant, how does the Tm read?
**A.** 66.2 °C

**Q.** What about the “unfolding enthalpy (calorimetric)” value of the same variant?
**A.** 107 kcal/mol

**Q.** And the “unfolding enthalpy (van 't Hoff)” value?
**A.** 112 kcal/mol

**Q.** Which results are given for MKALIVLGLVLLSVTVQGKVFERCELARTLKRLGMDGYRGISLANWMCLAKWESGYNTRATNYNAGDRSTDYGIFQINSRYWCNDGKTPGAVNACHLSCSALLQDNIADAVACAKRVVRDPQGIRAWVAWRNRCQGRDVRQYVQGCGV [N136G]?
**A.** Tm: 65.7 °C; unfolding enthalpy (calorimetric): 103 kcal/mol; unfolding enthalpy (van 't Hoff): 110 kcal/mol

Same assay, conditions: Homo sapiens; pH 2.87; Thermal; DSC; Gly-HCl 0.05 M; reversible: yes; structure 1LZ1; whole UniProt chain shown

**Q.** Which results are given for MKALIVLGLVLLSVTVQGKVFERCELARTLKRLGMDGYRGISLANWMCLAKWESGYNTRATNYNAGDRSTDYGIFQINSRYWCNDGKTPGAVNACHLSCSALLQDNIADAVACAKRVVRDPQGIRAWVAWRNRCQARDVRQYVQGCGV [N136A]?
**A.** Tm: 68.6 °C; unfolding enthalpy (calorimetric): 109 kcal/mol; unfolding enthalpy (van 't Hoff): 117 kcal/mol

Same assay, conditions: Homo sapiens; pH 3.02; Thermal; DSC; Gly-HCl 0.05 M; reversible: yes; structure 1LZ1; whole UniProt chain shown

**Q.** For MKALIVLGLVLLSVTVQGKVFERCELARTLKRLGMDGYRGISLANWMCLAKWESGYNTRATNYNAGDRSTDYGIFQINSRYWCNDGKTPGAVNACHLSCSALLQDNIADAVACAKRVVRDPQGIRAWVAWRNRCQARDVRQYVQGCGV [N136A], which Tm is on record?
**A.** 70.9 °C

**Q.** And the “unfolding enthalpy (calorimetric)” value?
**A.** 111 kcal/mol

**Q.** What about the “unfolding enthalpy (van 't Hoff)” value of the same variant?
**A.** 118 kcal/mol

Same assay, conditions: Homo sapiens; pH 2.72; Thermal; DSC; Gly-HCl 0.05 M; reversible: yes; structure 1LZ1; whole UniProt chain shown

**Q.** Which Tm does the source give for MKALIVLGLVLLSVTVQGKVFERCELARTLKRLGMDGYRGISLANWMCLAKWESGANTRATNYNAGDRSTDYGIFQINSRYWCNDGKTPGAVNACHLSCSALLQDNIADAVACAKRVVRDPQGIRAWVAWRNRCQNRDVRQYVQGCGV [Y56A] here?
**A.** 56.3 °C

**Q.** And the “unfolding enthalpy (calorimetric)” value?
**A.** 88 kcal/mol

**Q.** And the “unfolding enthalpy (van 't Hoff)” value?
**A.** 89.2 kcal/mol

Same assay, conditions: Homo sapiens; pH 3; Thermal; DSC; Gly-HCl 0.05 M; reversible: yes; structure 1LZ1; whole UniProt chain shown

**Q.** For MKALIVLGLVLLSVTVQGKVFERCELARTLKRLGMDGYRGISLANWMCLAKWESGANTRATNYNAGDRSTDYGIFQINSRYWCNDGKTPGAVNACHLSCSALLQDNIADAVACAKRVVRDPQGIRAWVAWRNRCQNRDVRQYVQGCGV [Y56A], which Tm is on record?
**A.** 61.7 °C

**Q.** And the “unfolding enthalpy (calorimetric)” value?
**A.** 94.4 kcal/mol

**Q.** And the “unfolding enthalpy (van 't Hoff)” value?
**A.** 96.3 kcal/mol

Same assay, conditions: Homo sapiens; pH 3.18; Thermal; DSC; Gly-HCl 0.05 M; reversible: yes; structure 1LZ1; whole UniProt chain shown

**Q.** Which Tm does the source give for MKALIVLGLVLLSVTVQGKVFERCELARTLKRLGMDGYRGISLANWMCLAKWESGANTRATNYNAGDRSTDYGIFQINSRYWCNDGKTPGAVNACHLSCSALLQDNIADAVACAKRVVRDPQGIRAWVAWRNRCQNRDVRQYVQGCGV [Y56A] here?
**A.** 65 °C

**Q.** And the “unfolding enthalpy (calorimetric)” value?
**A.** 96.3 kcal/mol

**Q.** What about the “unfolding enthalpy (van 't Hoff)” value of the same variant?
**A.** 97.5 kcal/mol

Same assay, conditions: Homo sapiens; pH 2.95; Thermal; DSC; Gly-HCl 0.05 M; reversible: yes; structure 1LZ1; whole UniProt chain shown

**Q.** What does the source list for MKALIVLGLVLLSVTVQGKVFERCELARTLKRLGMDGYRGISLANWMCLAKWESGYNTRATNYNAGDRSTDYGIFQINSRYWCNDGKTPGAVNACHLSCSALLQDNIADAVACAKRVVRDPQGIRAWVAWRNRCQGRDVRQYVQGCGV [N136G]?
**A.** Tm: 69.3 °C; unfolding enthalpy (calorimetric): 107 kcal/mol; unfolding enthalpy (van 't Hoff): 115 kcal/mol

Same assay, conditions: Homo sapiens; pH 3.1; Thermal; DSC; Gly-HCl 0.05 M; reversible: yes; structure 1LZ1; whole UniProt chain shown

**Q.** For MKALIVLGLVLLSVTVQGKVFERCELARTLKRLGMDGYRGISLANWMCLAKWESGYNTRATNYNAGDRSTDYGIFQINSRYWCNDGKTPGAVNACHLSCSALLQDNIADAVACAKRVVRDPQGIRAWVAWRNRCQGRDVRQYVQGCGV [N136G], which Tm is on record?
**A.** 71.6 °C

**Q.** And the “unfolding enthalpy (calorimetric)” value?
**A.** 113 kcal/mol

**Q.** What about the “unfolding enthalpy (van 't Hoff)” value of the same variant?
**A.** 119 kcal/mol
